Source: US20130288389A1

How the values were obtained:
Experiment in all cases: cell-based or functional assay
[1] = target: sheep ARQ scrapie brain homogenate PrP-res (sheep) (UniProt P23907)
[2] = target: human sporadic CJD (sCJD) brain homogenate PrP-res (human) (UniProt P04156)
[3] = target: PrP^Sc of 263K scrapie-infected Syrian golden hamsters (Syrian golden hamster) (UniProt P04273)

With monoclonal antibody 15B3 the eQuIC ("20×" 15B3 beads): lowest PrP-res amount detected in 0.5 ml plasma [1] was 100 ag, the eQuIC: lowest PrP-res amount detected in 0.5 ml human cerebrospinal fluid [2] was 10 ag and the eQuIC: lowest PrP-res amount detected in 0.5 ml human plasma [2] was 10 ag. For the same substance, the IP-RT-QuIC (ThT fluorescence): lowest brain dilution detected in human plasma (dilution of brain tissue) [3] was 1e-10 and the IP-RTQ speed and sensitivity with higher 15B3 content on beads (fold higher 15B3 on beads) [3] was 12.
